Patent publication US20230071765A1, “COMPOSITIONS HAVING THIOREDOXIN ACTIVITY AND RELATED METHODS” (ORPRO THERAPEUTICS, INC., priority 2020, published 2023)

Experiments:
mucins of 4% HBE mucus = experiment: mucin molecular weight by GPC-MALLS; type: biochemical, human; settings: all three concentrations (0.01, 0.1, 1.0 mM), 1 hr at 37° C.; untreated 180 MDa
From the text: Mucus Preparation: Aseptic mucus was harvested from over 100 individual HBE cultures from 20 different CF donors and prepared to four weight-percent (4%) solids, a concentration that typifies chronic obstructive pulmonary disease (COPD) and mild CF (Hill, D. B. et al., 2014, A biophysical basis for mucus solids concentration as a candidate biomarker for airways disease, PloS one 9, e87681; Anderson, W. H. et al., 2015, The relationship of mucus concentration (hydration) to mucus osmotic pressure and transport in chronic bronchitis., Am J Resp Crit Care Med 192: 182-90). […] Creep recovery experiments were performed in which a known stress (between 0.05 and ˜100 Pa) was applied to treated or control mucus for 10 seconds, and the rheological recovery of the fluid was recorded for an additional 50 seconds. […] From the measured parameters the viscosity and elasticity of the fluid were determined as a function of applied stress. […] Mucin molecular weight determination: Molecular weight reduction following test article treatment was determined using a combination of gel-permeation chromatography with multi-angle laser light scattering on a Wyatt Heleos MALLS system. […] Mucin MW was determined by fitting a Berry model to light scattering from 11 different angles using Wyatt Astra software. […]

[1] = system: primary HBE cells from healthy non-CF donors; experiment: μOCT of MCT rate and CBF in non-CF primary HBE cells; type: cell-based, human
From the text: Primary human bronchial epithelial (HBE) cells were derived from lung explants from healthy failed donors and CF patients homozygous for F508del CFTR. […]
One-micron resolution spectral domain μOCT was used to obtain measurements of mucociliary transport (MCT) rate and ciliary beat frequency (CBF) in HBE monolayers and of MCT rate of sputum ex vivo. This first-in-kind, high-speed (40 frames per second, 512 lines per frame) microscopic reflectance imaging modality enables simultaneous anatomic imaging in cell cultures and intact tissues that readily distinguishes the properties of CF compared to normal epithelia (Liu L, Chu K K, Houser G H, Diephuis B J, Li Y, Wilsterman E J, Shastry S, Dierksen G, Birket S E, Mazur M, et al., 2013, Method for quantitative study of airway functional microanatomy using micro-optical coherence tomography, PLoS One 8(1):e54473; Tuggle K L, Birket S E, Cui X, Hong J, Warren J, Reid L, Chambers A, Ji D, Gamber K, Chu K K, et al., 2014, Characterization of defects in ion transport and tissue development in Cystic Fibrosis Transmembrane Conductance Regulator (CFTR)-knockout rats. […] Images were captured, and MCT rate and CBF calculated, as described in the preceding references.

B1: ORP100S: thioredoxin with monothiol active site, Cys35 and non-active Cys 62, 69 and 73 substituted with serine (SEQ ID NO:29) (protein)
chain: MVKQIESKTAFQEALDAAGDKLVVVDFSATWCGPSKMIKPFFHSLSEKYSNVIFLEVDVDDSQDVASESEVKSMPTFQFFKKGQKVGEFSGANKEKLEATINELV
modifications: synthetic peptide motif
molecular weight of mucins (mucins of 4% HBE mucus): ca. 150 MDa | CBF ([1]; 3 hrs post treatment): no meaningful differences | MCT rate ([1]; 3 hrs post-treatment, ORP100S 1-3 mM, DTT 1.6 mM, PBS 0.05±0.007, mean±SE): 2.18±0.3 mm/min
